Here are results for 36 sequences from the supplement of paper PMC12764529.

A short description of series [1]: folding stability dG unfold from trypsin proteolysis; higher = more stable. Put shortly: (§1)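 Only designs with AlphaFold2 dimer inter-PAE above 15 were retained; each was a mini-protein under 80 residues with no cysteine, in a PA-tagged cDNA display construct. After digestion with trypsin and chymotrypsin and sequencing, K50 was inferred by Bayesian fitting of counts, and unfolding free energy was derived per protease or combined against a sequence-predicted unfolded-state K50 and a shared folded-state K50.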

Series [2] in a line: folding stability dG unfold from chymotrypsin proteolysis; higher = more stable. The method in brief: as §1
Series [3] in a line: folding stability dG unfold (combined trypsin and chymotrypsin); higher = more stable. The method in brief:
as §1

± gives the half width of the 95% confidence interval.

“SAGGMTITIPPSVPDADVERIVEEAEATFPQPVTLTRDPGRGRWTLTFDGPEDERREAIEALAARLASAGGS [r16_227_JUSTAS]”: the “folding stability dG unfold” value in series [1] was determined as 0.0735 ± 0.14 kcal/mol; in series [2] it was 0.565 ± 0.19 kcal/mol; in series [3], 0.434 ± 0.12 kcal/mol.
The like results for “SAGGMTITIPVTESGSLEEALALAERVAEEARAAGLEEVTITVTVYDPANGEVLYTKTRRVPVRPEASAGGS [r8_33_JUSTAS]” were, in that order, 2.03 ± 0.032 kcal/mol, 2.274 ± 0.0077 kcal/mol and 2.21 ± 0.031 kcal/mol.
In the case of “SAGGMTIVEKDGKLVLKITVTVPPGTTVEELKNALKELFGVEEVKVVKIEKNENGEITITVEAVFPKSAGGS [r16_234_TrROS_Hall]”, the “folding stability dG unfold” value in series [1] came to 2.59 ± 0.12 kcal/mol; in series [2], 3.31 ± 0.13 kcal/mol; in series [3] it was 3.03 ± 0.11 kcal/mol.
For the sequence “SAGGMTIVLPNGITLTFYPDRTVTATVDFPGRPLTLTLDAASLAEAVAAVERAAAEWAAPAPPVVDLSSAGG [r13_896_TrMRF]”, the results for the “folding stability dG unfold” value in series [1], in series [2] and in series [3] were 2.56 ± 0.042 kcal/mol, 2.824 ± 0.013 kcal/mol and 2.72 ± 0.042 kcal/mol, respectively.
In the case of “SAGGMTKTVTVTIEIDVPPGVTVDELIEKLKELAEKLGLTVKVTSVTVEEVDGKLVVTVEVEIEPPEPSAGG [r13_351_TrROS_Hall]”, the “folding stability dG unfold” value was 2.58 ± 0.25 kcal/mol in series [1], 2.6 ± 0.18 kcal/mol in series [2] and 2.5 ± 0.31 kcal/mol in series [3].
On to “SAGGMTLITIEHPDGEVIEFELPGATEEEAEAIAEEIAKRHDPGKVKVTFEKVPEKGVDPTKPVAVKSAGGS [r8_167_JUSTAS]”, for which the “folding stability dG unfold” value is -0.128 ± 0.073 kcal/mol in series [1], 1.39 ± 0.038 kcal/mol in series [2] and 0.917 ± 0.099 kcal/mol in series [3].
Consider “SAGGMTLRIVLPEEEAEKLVEELKKIFPGAEIKVKKVEYNEETGEKLVVLEIKFKSKEEAEKAKKLLESAGG [r13_539_TrROS_Hall]”, for which the “folding stability dG unfold” value in series [1] was 3.54 ± 0.1 kcal/mol; in series [2], 3.8 ± 0.12 kcal/mol; in series [3], 3.73 ± 0.083 kcal/mol.
For “SAGGMTLTLTGPEEVVDDLLERLREEFPDVTVEPTAVSYDPATGLVTVPVRVVTEDPAVVAAIRAALSSAGG [r13_539_JUSTAS]”, the “folding stability dG unfold” value in series [1] is 4.08 ± 0.091 kcal/mol; in series [2], 3.562 ± 0.03 kcal/mol; in series [3] it was 3.79 ± 0.065 kcal/mol.
Consider “SAGGMTLTLTIKVKTTTVEKDAATGKETVRTETRTLTVTIEAESEEEALAALKKLLEELGFEIVEVTSAGGS [r16_459_TrROS_Hall]”, for which the “folding stability dG unfold” value in series [1] amounted to 3.99 ± 0.27 kcal/mol; in series [2], 5.1 ± 0.22 kcal/mol; in series [3], 4.89 ± 0.28 kcal/mol.
For the sequence “SAGGMTPAVTETTIELPASDPEAAIAALRAAGWELLARERGPDGSVRMVFAAPTRRVTVDFVGPAAASAGGS [r16_170_JUSTAS]”, the “folding stability dG unfold” value in series [1] came out at 1.06 ± 0.014 kcal/mol; in series [2], 2.03 ± 0.039 kcal/mol; in series [3], 1.71 ± 0.032 kcal/mol.
Take “SAGGMTPEELREKAKKLAEELAKKLKEKYPNVKVEVEVDEETKKVKIKVKNKKTGKTYEITINLEELLSAGG [r13_354_TrROS_Hall]”: the “folding stability dG unfold” value in series [1] was determined as 3.85 ± 0.47 kcal/mol; in series [2], 3.94 ± 0.22 kcal/mol; in series [3] it was 4.09 ± 0.42 kcal/mol.
Regarding “SAGGMTRVLELTVPVDVIGPEELKALLEALAEDAEVEFEIGPDGLLRVRVTVDVPPDPDAPPDLDGESAGGS [r16_535_TrMRF]”, the “folding stability dG unfold” value was 1.82 ± 0.045 kcal/mol in series [1], 2.4 ± 0.099 kcal/mol in series [2] and 2.33 ± 0.11 kcal/mol in series [3].
For “SAGGMTSTLTVTLTVSPSTSPEEAAERAAEALEAAHPDRTVVIESITVTPATGKVVATIKVVGDTGASAGGS [r8_26_JUSTAS]”, in that order: 1.53 ± 0.055 kcal/mol, 1.18 ± 0.029 kcal/mol and 1.39 ± 0.07 kcal/mol.
In the case of “SAGGMTTTTTFDGPTDEAFDLPSGVKVEPEPATGGYRVELPPGREVEVTVERSTDPGTVTWTFTFKESAGGS [r16_122_JUSTAS]”, the “folding stability dG unfold” value in series [1] is 0.3 ± 0.036 kcal/mol; in series [2] it was 0.531 ± 0.16 kcal/mol; in series [3], 0.544 ± 0.078 kcal/mol.
As to “SAGGMTTVTTTFTMSSEELKKFLEEKFGREVTKEEIIELIPKEKKIDVSESPQPNGTVKYTITITIEKSAGG [r13_869_JUSTAS]”, the “folding stability dG unfold” value in series [1] was determined as 1.99 ± 0.099 kcal/mol; in series [2], 2.61 ± 0.044 kcal/mol; in series [3], 2.44 ± 0.16 kcal/mol.
As for “SAGGMTVERVPGSGVYTLTFPDGSTETLEIPPEENAVVYAKEGAGTVTVKLAPPDDPEALAAAAALSSAGGS [r16_623_JUSTAS]”, the “folding stability dG unfold” value was -0.344 ± 0.083 kcal/mol in series [1], 0.357 ± 0.069 kcal/mol in series [2] and 0.15 ± 0.066 kcal/mol in series [3].
For “SAGGMTVSVTADGSSYTATVKLPDGTTLTVPFTSLEELATQVREEYEKAFPDVPLERLVLEDISPTAPSAGG [r13_887_JUSTAS]”, in that order: 1.77 ± 0.031 kcal/mol, 3.344 ± 0.021 kcal/mol and 2.93 ± 0.036 kcal/mol.
“SAGGMTVTVLEVTEEEVIIDDKKEKIITITIKLPDGTEITVTLSTSEIEAKGLTKEEAVEYIAKKLLSAGGS [r16_625_JUSTAS]”: the “folding stability dG unfold” value in series [1] turned out to be 3.55 ± 0.085 kcal/mol; in series [2] it was 4.16 ± 0.058 kcal/mol; in series [3], 3.99 ± 0.078 kcal/mol.
“SAGGMVEITATVGSPDPSLTDEEIAERILKELGLDPEIVEVTFLERRLVPDAAGRVRVVVEMKFLVPEKSAG [r5_528_JUSTAS]”: the “folding stability dG unfold” value in series [1] is 4.77 ± 0.21 kcal/mol; in series [2], 4.26 ± 0.16 kcal/mol; in series [3], 4.73 ± 0.19 kcal/mol.
The like results for “SAGGMVEVTYDPETGTLTILLPSPSGTLGPEAVEAAARLIRELYPEAEVEVEPLPDNTVRLRVRFPGGSAGG [r13_291_TrMRF]” were, in that order, 4.22 ± 0.093 kcal/mol, 5.38 ± 0.23 kcal/mol and 4.96 ± 0.14 kcal/mol.
For “SAGGMVILVKDKDGRWRELSEEEIRRLAEELERRYNLEVEEVELEDGERYYLIRIEPPEVPGLSEEELSAGG [r13_790_TrROS_Hall]”, in that order: 1.97 ± 0.059 kcal/mol, 2.15 ± 0.13 kcal/mol and 2.23 ± 0.21 kcal/mol.
“SAGGMVIRVRFRETNETVTLSPEVLEALKRGDPDALRALPEEQREALARIERVEIRPAPPVRVLPEEESAGG [r13_233_TrROS_Hall]”: the “folding stability dG unfold” value in series [1] turned out to be 2.63 ± 0.14 kcal/mol; in series [2] it was 1.81 ± 0.14 kcal/mol; in series [3], 2.29 ± 0.43 kcal/mol.
As to “SAGGMVITIPTTTSSIEEAIEAVKKKVEEEGYKVTEIKDIKVSTDPKTGKINVTATVIVEKLPKEEKSAGGS [r16_155_JUSTAS]”, the “folding stability dG unfold” value in series [1] was determined as 0.99 ± 0.057 kcal/mol; in series [2], 2.85 ± 0.22 kcal/mol; in series [3] it was 2.55 ± 0.3 kcal/mol.
For the sequence “SAGGMVIVFPAPKDISPDELRELIEAEVGPLAEELGLTEASIPIAKVEELPEGSRRVVAVIELRFDGSAGGS [r8_184_TrMRF]”, the “folding stability dG unfold” value in series [1] worked out at 0.977 ± 0.027 kcal/mol; in series [2], 0.332 ± 0.048 kcal/mol; in series [3], 0.718 ± 0.056 kcal/mol.
Turning to “SAGGMVIVVKTKEEAKKALEELLKKLFPDLKIKKIEIKEVEVEVKKKDGKKVKKKKFIVVKIEIEKESAGGS [r16_267_TrROS_Hall]”, the “folding stability dG unfold” value in series [1] is 2.61 ± 0.1 kcal/mol; in series [2], 3.38 ± 0.13 kcal/mol; in series [3], 3.05 ± 0.13 kcal/mol.
As to “SAGGMVKLTVYETPDSYTVTIDLGDKPYTIPVPPGLSPEEAAARAVEELQKAFPDEEVVVESVEYVARSAGG [r13_884_JUSTAS]”, the entries for the “folding stability dG unfold” value in series [1], in series [2] and in series [3] were 1.1 ± 0.079 kcal/mol, 1.24 ± 0.086 kcal/mol and 1.19 ± 0.068 kcal/mol, respectively.
As to “SAGGMVNLRLYNPATGEPIDFPVPKDVVEEMLKNGDLAALEALFPGFPIAKVEVDEGEEVPAVPPDEASAGG [r13_629_TrMRF]”, the “folding stability dG unfold” value was determined as 0.776 ± 0.032 kcal/mol in series [1], 0.0323 ± 0.15 kcal/mol in series [2] and 0.462 ± 0.14 kcal/mol in series [3].
The like results for “SAGGMVQISVTEIDPETGLITIEMKFPKGVDDPAKIAAAKAEAEAFAQELEKKLGLPVKVTFTPLPESAGGS [r16_304_JUSTAS]” were, in that order, 1.95 ± 0.037 kcal/mol, 1.9 ± 0.039 kcal/mol and 1.93 ± 0.043 kcal/mol.
For “SAGGMVTITLPEVNVEDPEVAEARMEEIAARLRAAGVTVTSASYDPEKGLATITVSAGGLSAAEVLASAGGS [r8_344_JUSTAS]”, in that order: 2.48 ± 0.042 kcal/mol, 2.455 ± 0.015 kcal/mol and 2.47 ± 0.037 kcal/mol.
Regarding “SAGGMVTITTEKMTEEEAEELKKKLPPNTVLLPNPANDTIVPILVPPDPAVLQAVKDALEKELAEAKSAGGS [r16_311_JUSTAS]”, the “folding stability dG unfold” value in series [1] was 1.49 ± 0.13 kcal/mol; in series [2] it was 0.662 ± 0.24 kcal/mol; in series [3], 1.18 ± 0.15 kcal/mol.
Regarding “SAGGMVTSTVSVDPSVPKTTTTETFSDGTRVVTTTTELPSGLTVTTTTVTVPPDGSTTATSTTTTIAPSAGG [r13_230_JUSTAS]”, the “folding stability dG unfold” value in series [1] was determined as 1.62 ± 0.064 kcal/mol; in series [2] it was 0.958 ± 0.044 kcal/mol; in series [3] it was 1.27 ± 0.11 kcal/mol.
Consider “SAGGMVTVDTDPTEDGTLRVTVTVPRPDGPALTLTLDFPPEAGSLAVVLARADEALAAEMARRGLALSAGGS [r8_464_JUSTAS]”, for which the “folding stability dG unfold” value in series [1] was -0.0072 ± 0.27 kcal/mol; in series [2], 1.95 ± 0.14 kcal/mol; in series [3], 1.44 ± 0.22 kcal/mol.
“SAGGMVVTEEGDKTYITVRVPAPPGLPPEAVAAEIRERYGLSDLEVLEVEALPDGTLVVRLRDSTPASAGGS [r16_234_JUSTAS]”: the “folding stability dG unfold” value was determined as 2.55 ± 0.074 kcal/mol in series [1], 2.554 ± 0.021 kcal/mol in series [2] and 2.55 ± 0.044 kcal/mol in series [3].
For “SAGGMVVVAVEVDPVTKTATIVYAAPVPNLGGYVPIPAAAVAKRLTEELGLPDVKEVTVAQAAGDVPISAGG [r13_327_TrMRF]”, the “folding stability dG unfold” value was 0.428 ± 0.057 kcal/mol in series [1], 0.607 ± 0.1 kcal/mol in series [2] and 0.578 ± 0.12 kcal/mol in series [3].
As to “SAGGMYLYKINIKNENEEFFLPILAPEEDEEKVEELAKEISIKLGVKPENIKIEKIEKILGPNGIPVSAGGS [r16_650_TrMRF]”, the “folding stability dG unfold” value in series [1] was 1.74 ± 0.058 kcal/mol; in series [2], 2.08 ± 0.037 kcal/mol; in series [3], 1.99 ± 0.1 kcal/mol.
For “SAGGNIKIEVYRSPDYYMIRIKLDGKPYEIPIDPGNTEEEAAEQALDNLQEKFPDKPIKIKDVEIYPYSAGG [r13_884_TrROS]”, in that order: 0.473 ± 0.22 kcal/mol, 0.513 ± 0.42 kcal/mol and 0.566 ± 0.28 kcal/mol.
